Results: the supplement of paper PMC9170038

Test system: MS2 coat protein
Assay: apparent KD of MS2 coat protein; designed switch direction (-1 OFF switch, 1 ON switch): -1; higher = weaker reporter binding
Method in brief: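 Designed RNA switches sharing common flanks were transcribed on Illumina chips by stalled E. coli RNA polymerase. They were titrated with SNAP-549-labelled MS2 coat protein, from 0.7 or 1.5 nM doubling to 3 µM, in Tris-HCl pH 7.5 buffer with KCl, MgCl2, BSA, DTT, tRNA and Tween-20. Titrations ran without input, with 200 uM small-molecule ligand, or with an oligonucleotide input. The apparent KD of each design is the median over its clusters, after curve-fitting of normalised cluster fluorescence.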

[1] = input ligand: microRNA oligo, concentration not stated
[2] = Eterna round: R95, input ligand: microRNA oligo, concentration not stated
[3] = Eterna round: R95, input ligand: FMN 200 uM
[4] = Eterna round: R95, input ligand: none

CGAUAUAACGUAGGAUAUCUGAGAAAUAGAUGAAGAGAAGGACGACAUGAGGAUCACCCAUGUGAUCUAUCAAUAUUAUACAUG [Prohibition 96 - Jieux - Exclusion NG 1] (Eterna round: R96, puzzle: Exclusion NG 1)
apparent KD of MS2 coat protein (input ligand: FMN 200 uM): 722 nM
apparent KD of MS2 coat protein [1]: 694 nM
apparent KD of MS2 coat protein (input ligand: none): 604 nM

CGAUAUAAGUCAGGAUAUGAGCGCAACUGACGAUCAGAAGGGACACAUGAGGAUCACCCAUGUGAUUUAUCAAUAUUAUACAUC [Prohibition 91 - Jieux - Exclusion NG 1] (Eterna round: R96, puzzle: Exclusion NG 1)
apparent KD of MS2 coat protein (input ligand: FMN 200 uM): 36.5 nM
apparent KD of MS2 coat protein [1]: 27.3 nM
apparent KD of MS2 coat protein (input ligand: none): 31.6 nM

CGAUCGGAAGGAUAUACACCUCACGUCAAACGGACAACCGGACAUGAGGAUCACCCAUGUAGAAGGUCCAAAAU [Tetixeve] (puzzle: Exclusion 2)
apparent KD of MS2 coat protein [2]: 55.7 nM

CGAUGAGGAGUGAGGAUAUCGUGUUCGAAAGAACGUGAGAAGGCACAUGAGGAUCACCCAUGUGAUCCUUGUCG [Omei Ex4B A9] (Eterna round: R97, puzzle: Brourd's mod of Exclusion 4)
apparent KD of MS2 coat protein (input ligand: FMN 200 uM): 57.2 nM
apparent KD of MS2 coat protein (input ligand: none): 30.4 nM

CGAUGAGGAGUGAGGAUAUCGUGUUCGAAAGAACGUGAGAAGGCACAUGAGGAUCACCCAUGUGAUUCUUAUCG [Omei Ex4B A19] (Eterna round: R97, puzzle: Brourd's mod of Exclusion 4)
apparent KD of MS2 coat protein (input ligand: FMN 200 uM): 77 nM
apparent KD of MS2 coat protein (input ligand: none): 25.5 nM

CGAUGCUCGUGUCCACAUGAGGAUCACCCAUGUCGAGUUAGCGAGGAUAUCGGUAGCACAUAGCACGAGAAGGCGCGAACCUGA [Ex NG3 #28] (Eterna round: R96, puzzle: Exclusion NG 3)
apparent KD of MS2 coat protein (input ligand: FMN 200 uM): 58.4 nM
apparent KD of MS2 coat protein [1]: 15.9 nM
apparent KD of MS2 coat protein (input ligand: none): 22 nM

CGCAUACUAGGAUAUACAUGAGGAUCACCCAUGUCGCCGGGCCCACUCAUACUAAAACGUAGAAGGAGUUUGCC [Enlalari] (puzzle: Exclusion 3)
apparent KD of MS2 coat protein [2]: 16.5 nM

CGCAUGUAAGGAUAUUAGUAGUAGUCAGAAUAGACUAUUACUGAGAAGGUACAUGAGGAUCACCCAUGUCAGCG [Eli x4 4.17] (Eterna round: R97, puzzle: Exclusion 4)
apparent KD of MS2 coat protein (input ligand: FMN 200 uM): 361 nM
apparent KD of MS2 coat protein (input ligand: none): 56.4 nM

CGCCAUCGAGUGAGGAUAUCAGGUAAAGGUGUACAUGAGAAGGCACUUGAGGAUCACCCAAGUAUUAAAGAAAA [Mareat] (Eterna round: R97, puzzle: Brourd's mod of Exclusion 4)
apparent KD of MS2 coat protein (input ligand: FMN 200 uM): 356 nM
apparent KD of MS2 coat protein (input ligand: none): 48.3 nM

CGCUACGAAGUCAGGAUAUCAGAACAAGAUAAAUAUGAGAAGGGACAUGAGGAUCACCCAUGUUCGGUGGUAGC [BmEX4 A.14] (Eterna round: R97, puzzle: Brourd's mod of Exclusion 4)
apparent KD of MS2 coat protein (input ligand: FMN 200 uM): 24.6 nM
apparent KD of MS2 coat protein (input ligand: none): 21.1 nM

CGCUAGUCAGGAUAUACGAACAUGUCAAAAGACGUGAAGGGACAUGAGGAUCACCCAUGUAGAAGGGACUAGCU [salish99_ex2_r3_013] (puzzle: Exclusion 2)
apparent KD of MS2 coat protein [2]: 24.7 nM

CGCUGGACAGGAUAUGUUCUUGGGCACUUGAGGAUCACCCAAGUCAUCAAGAACUCAGGCACAGAAGGGUUUAUGG [salish99_ex5_r4_018] (Eterna round: R97, puzzle: Exclusion 5)
apparent KD of MS2 coat protein (input ligand: FMN 200 uM): 41.5 nM
apparent KD of MS2 coat protein (input ligand: none): 18.9 nM

CGCUGGGCAGGAUAUGUUCUUGAGCACUUGAGGAUCACCCAAGUCAUCAAGAACUCAGGCACAGAAGGGUUUAUGG [salish99_ex5_r4_017] (Eterna round: R97, puzzle: Exclusion 5)
apparent KD of MS2 coat protein (input ligand: FMN 200 uM): 10.5 nM
apparent KD of MS2 coat protein (input ligand: none): 13.4 nM

CGCUGGUGAGGAUAUGGGUGUGGUUACAUGAGGAUCACCCAUGUGGAGUCGCAUGUGGGUCCAGAAGGCGCGGGUG [-25.2, -23.4 kcal, 18% A] (Eterna round: R97, puzzle: Exclusion 5)
apparent KD of MS2 coat protein (input ligand: FMN 200 uM): 158 nM
apparent KD of MS2 coat protein (input ligand: none): 215 nM

CGGACCCGAGGAUAUCGUAAACCCGACAUGAGGAUCACCCAUGUCAUCCUCACGGCGCCACGAGAAGGCGGUGUUA [Ansolaedra] (puzzle: Exclusion 5)
apparent KD of MS2 coat protein [2]: 21.8 nM

CGGAGACAUGAGGAUCACCCAUGUGAGGAUAUGGCGUGCGCUACUAAAGGUGGUUGCUCCAGAAGGCGCGGUGU [Eternabot (L1) Solution 3] (Eterna round: R97, puzzle: Exclusion 1)
apparent KD of MS2 coat protein (input ligand: FMN 200 uM): 74.5 nM
apparent KD of MS2 coat protein (input ligand: none): 65.2 nM

CGGCGCCUAGGAUAUACUCUGAGAAUCAGUUGGGUCUCCGGACAUGAGGAUCACCCAUGUAGAAGGAGGAAGCU [EX2 C.11] (Eterna round: R97, puzzle: Exclusion 2)
apparent KD of MS2 coat protein (input ligand: FMN 200 uM): 21.3 nM
apparent KD of MS2 coat protein (input ligand: none): 18.4 nM

CGGCGGGCAGGAUAUGGUAAUAAUUACAUGAGGAUCACCCAUGUAGAUAUAUGGGAAUAACCAGAAGGGCUUGUUG [-20.5, -20.3 kcal, A 32%] (Eterna round: R97, puzzle: Exclusion 5)
apparent KD of MS2 coat protein (input ligand: FMN 200 uM): 19.7 nM
apparent KD of MS2 coat protein (input ligand: none): 28.7 nM

CGGCUACGAUGAGGAUAUACGCACAUGAGGAUCACCCAUGUAAAUCACGGGUAAAGAUCGCCAUCGUAGAAGGCAUAAGGGCCC [Orsole] (Eterna round: R96, puzzle: Exclusion NG 2)
apparent KD of MS2 coat protein (input ligand: FMN 200 uM): 80.3 nM
apparent KD of MS2 coat protein [1]: 49.6 nM
apparent KD of MS2 coat protein (input ligand: none): 80.2 nM

CGGCUACGAUGAGGAUAUACGCACAUGAGGAUCACCCAUGUAAAUCACGGGUAAAGAUCUUCAUCGUAGAAGGCAUAAGGGCCC [Edarbelabe] (Eterna round: R96, puzzle: Exclusion NG 2)
apparent KD of MS2 coat protein (input ligand: FMN 200 uM): 31.8 nM
apparent KD of MS2 coat protein [1]: 20.9 nM
apparent KD of MS2 coat protein (input ligand: none): 31.4 nM

CGGGUCGGAGGAUAUACAGAAGCAUCUGUGUCGGGAAUAUGACAUGAGGAUCACCCAUGUAGAAGGCCGAUCAC [Eternabot (L2) Solution 98] (Eterna round: R97, puzzle: Exclusion 2)
apparent KD of MS2 coat protein (input ligand: FMN 200 uM): 485 nM
apparent KD of MS2 coat protein (input ligand: none): 80 nM

CGGGUGAAUAGAGGAUAUAGUACAUGAGGAUCACCCAUGUAAUAAAUGAGAAUUUCGAAUGUAAUCUAGAAGGCUAGAAAACCC [Ostracism 99 - Jieux - Exclusion NG 2] (Eterna round: R96, puzzle: Exclusion NG 2)
apparent KD of MS2 coat protein (input ligand: FMN 200 uM): 367 nM
apparent KD of MS2 coat protein [1]: 150 nM
apparent KD of MS2 coat protein (input ligand: none): 274 nM

CGGGUUCGUGUUAGGAUAUGCACGCACCCGUAGCGGCAGAAGGAACAUGAGGAUCACCCAUGUGAAUAAGAAAA [BmEX4 A.3] (Eterna round: R97, puzzle: Brourd's mod of Exclusion 4)
apparent KD of MS2 coat protein (input ligand: FMN 200 uM): 18.3 nM
apparent KD of MS2 coat protein (input ligand: none): 15.5 nM

CGGGUUCGUGUUAGGAUAUGCACGCACCCGUUGCGGCAGAAGGAACAUGAGGAUCACCCAUGUGAAUAAGAAAG [BmEX4 A.21] (Eterna round: R97, puzzle: Brourd's mod of Exclusion 4)
apparent KD of MS2 coat protein (input ligand: FMN 200 uM): 17.1 nM
apparent KD of MS2 coat protein (input ligand: none): 15.5 nM

CGGUACUGAGGAUAUACAUGAGGAUCACCCAUGUGUACCAGCUAGCGUACUGGCAUUAGUAGAAGGCGGUGCUG [JL-ex3-3.19 Brourd mod] (puzzle: Exclusion 3)
apparent KD of MS2 coat protein [3]: 15.7 nM
apparent KD of MS2 coat protein [2]: 14.3 nM
apparent KD of MS2 coat protein [4]: 13.7 nM

CGGUACUGAGGAUAUACAUGAGGAUCACCCAUGUGUUCUAGCUAGCGUACUGGCUAUUGUAGAAGGCGGUGCUG [JL-ex3-3.24 Brourd mod] (puzzle: Exclusion 3)
apparent KD of MS2 coat protein [2]: 17.5 nM

CGGUAGUAUGUAGGAUAUCGGUCAGUUUCUGAUCGAGAAGGACAUGAGGAUCACCCAUGUAAAACGACCGGUUUCUGGUUGCCG [JL ENG1 3.55] (Eterna round: R96, puzzle: Exclusion NG 1)
apparent KD of MS2 coat protein (input ligand: FMN 200 uM): 15.4 nM
apparent KD of MS2 coat protein [1]: 12 nM
apparent KD of MS2 coat protein (input ligand: none): 15.6 nM

CGGUCGUCGUGAGGAUAUACAUGAGGAUCACCCAUGUUUCUCGGGUCGGUCGUCCGGUCGGUGGUGUAGAAGGCGCGGUGGCUG [random 3, A 14%] (Eterna round: R96, puzzle: Exclusion NG 2)
apparent KD of MS2 coat protein (input ligand: FMN 200 uM): 125 nM
apparent KD of MS2 coat protein [1]: 95.6 nM
apparent KD of MS2 coat protein (input ligand: none): 100 nM

CGGUGCUGAGGAUAUACAUGAGGAUCACCCAUGUGUUCCAGCUAGCGUACUGGCAGGUGUAGAAGGCGGUACUG [JL-ex3-3.41 Brourd mod] (puzzle: Exclusion 3)
apparent KD of MS2 coat protein [3]: 68.7 nM
apparent KD of MS2 coat protein [2]: 18.7 nM
apparent KD of MS2 coat protein [4]: 20.1 nM

CGGUGCUGAGGAUAUACAUGAGGAUCACCCAUGUGUUCCUGCUAGCGUACUGGCAGAUGUAGAAGGCGGUACUG [JL-ex3-3.44 Brourd mod] (puzzle: Exclusion 3)
apparent KD of MS2 coat protein [3]: 84 nM
apparent KD of MS2 coat protein [2]: 20.8 nM
apparent KD of MS2 coat protein [4]: 26.7 nM

CGGUGCUGAGGAUAUACAUGAGGAUCACCCAUGUGUUCCUGCUAGGUGACUGGCAAAUGUAGAAGGCGGUACUG [JL-ex3-3.37 Brourd mod] (puzzle: Exclusion 3)
apparent KD of MS2 coat protein [3]: 34.8 nM
apparent KD of MS2 coat protein [2]: 120 nM
apparent KD of MS2 coat protein [4]: 131 nM

CGGUGCUUCUGGAAACAUGAGGAUCACCCAUGUUGAGUUAGCGAGGAUAUCGGUAACACAUGUCACGAGAAGGCGCGAACCAGA [Ex NG3 #34] (Eterna round: R96, puzzle: Exclusion NG 3)
apparent KD of MS2 coat protein (input ligand: FMN 200 uM): 10.4 nM
apparent KD of MS2 coat protein [1]: 13 nM
apparent KD of MS2 coat protein (input ligand: none): 16.7 nM

CGGUGUAGAGGAUAUACGUGAAGAUAAGAAAAUAAUAAUUAACAUGAGGAUCACCCAUGUAGAAGGCUAUAGCG [JR_Ex2_Sub082] (Eterna round: R97, puzzle: Exclusion 2)
apparent KD of MS2 coat protein (input ligand: FMN 200 uM): 66.3 nM
apparent KD of MS2 coat protein (input ligand: none): 24.9 nM

CGUAAGCUAGGAUAUGCUUUGGGAAAGCAUUCCUUCGAUAAACUUGAGGAUCACCCAAGUAGAAGGAGCUUACC [salish99_ex2_r4_009] (Eterna round: R97, puzzle: Exclusion 2)
apparent KD of MS2 coat protein (input ligand: FMN 200 uM): 11.7 nM
apparent KD of MS2 coat protein (input ligand: none): 11.5 nM
